Test results from the supplement of paper PMC7877785.
± gives the uncertainty stated by the source.

Assay: self-splicing fitness, log relative to wild type (ln ratio); higher = more splicing; Tetrahymena group I intron in knt gene, E. coli kanamycin selection, DiMSum; sequences stand for … in CUCUCU…GGAGGGAAAAGUUAUCAGGCAUGCACCUGGUAGCUAGUCUUUAAACCAAUAGAUUGCAUCGGUUUAAAAGGCAAGACCGUCAAAUUGCGGGAAAGGGGUCAACAGCCGUUCAGUACCAAGUCUCAGGGGAAACUUUGAGAUGGCCUUGCAAAGGGUAUGGUAAUAAGCUGACGGACAUGGUCCUAACCACGCAGCCAAGUCCUAAGUCAACAGAUCUUCUGUUGAUAUGGAUGCAGUUCACAGACUAAAUGUCGGUCGGGGAAGAUGUAUUCUUCUCAUAAGAUAUAGUCGGACCUCUCCUUAAUGGGAGCUAGCGGAUGAAGUGAUGCAACACUGGAGCCGCUGGGAACUAAUUUGUAUGCGAAAGUAUAUUGAUUAGUUUUGGAGUACUCGUGGUCG
How it was run: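 Library with all eight P1ex-region intron nucleotides randomised, intron inside the knt kanamycin-resistance gene on pET-22b(+), in E. coli BL21(DE3). Cells grew overnight at 37°C or 30°C on LB agar with or without 25 μg/mL kanamycin (plus 100 μg/mL carbenicillin, 50 μM IPTG, 0.2% rhamnose), in six replicate transformations. Pooled colonies were amplicon-sequenced on Illumina HiSeq 2500. DiMSum fitness is the error-weighted combination of wild-type-normalised replicate fold changes, kanamycin versus none.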

Row | Sequence | self-splicing fitness (ln) (30 °C) | self-splicing fitness (ln) (37 °C)
1 | CUGCAGCAAUAUUACGUCAA | -3.08 ± 0.17 | -1.47 ± 0.12
2 | CUGCAGCAAUAUUACGUCUG | -2.34 ± 0.16 | -0.738 ± 0.17
3 | CUGCAGCAAUAUUACGUGCA | -2.38 ± 0.13 | -0.522 ± 0.1
4 | CUGCAGCAAUAUUACGUGGG | -4.18 ± 0.18 | -3 ± 0.13
5 | CUGCAGCAAUAUUACGUUUC | -3.11 ± 0.14 | -3.1 ± 0.25
6 | CUGGAGCAAUAUUACGAAAA | -2.86 ± 0.25 | -1.6 ± 0.22
7 | CUGGAGCAAUAUUACGCCUU |  | -1.6 ± 0.43
8 | CUGGAGCAAUAUUACGCGGU | -1.94 ± 0.1 | -2.46 ± 0.24
9 | CUGGAGCAAUAUUACGCGUA |  | -2.81 ± 0.43
10 | CUGGAGCAAUAUUACGCUAU | -3.45 ± 0.38 | -2.67 ± 0.38
11 | CUGGAGCAAUAUUACGGCGU | -2.77 ± 0.18 | 
12 | CUGGAGCAAUAUUACGGCUU | -4.3 ± 0.42 | -2.68 ± 0.33
13 | CUGGAGCAAUAUUACGGUCU | -4.34 ± 0.32 | -2.38 ± 0.29
14 | CUGGAGCAAUAUUACGGUUU | -2.21 ± 0.15 | -2.43 ± 0.26
15 | CUGGAGCAAUAUUACGUCAU | -4.18 ± 0.25 | -3.19 ± 0.4
16 | CUGGAGCAAUAUUACGUGCA | -3.46 ± 0.41 | 
17 | CUGUAGCAAUAUUACGAACG | 0.0721 ± 0.084 | 0.403 ± 0.1
18 | CUGUAGCAAUAUUACGAAGA |  | -2.29 ± 0.29
19 | CUGUAGCAAUAUUACGAAGG | -1.83 ± 0.21 | -2.22 ± 0.3
20 | CUGUAGCAAUAUUACGACGG | -2.64 ± 0.23 | -1.07 ± 0.42
21 | CUGUAGCAAUAUUACGAUAA | -3.19 ± 0.38 | -1.72 ± 0.27
22 | CUGUAGCAAUAUUACGAUUA | -2.74 ± 0.33 | -1.24 ± 0.4
23 | CUGUAGCAAUAUUACGAUUG | -1.2 ± 0.23 | 0.185 ± 0.22
24 | CUGUAGCAAUAUUACGCAAC |  | -2.99 ± 0.47
25 | CUGUAGCAAUAUUACGCACG | -0.568 ± 0.12 | -0.0751 ± 0.12
26 | CUGUAGCAAUAUUACGCAUC | -3.45 ± 0.32 | -2.69 ± 0.34

Row | Sequence | self-splicing fitness (ln) (30 °C) | self-splicing fitness (ln) (37 °C)
27 | CUGUAGCAAUAUUACGCCCA | -1.79 ± 0.28 | -2.56 ± 0.27
28 | CUGUAGCAAUAUUACGCCCG | -0.124 ± 0.26 | -0.221 ± 0.31
29 | CUGUAGCAAUAUUACGCGCG | -0.982 ± 0.12 | -0.117 ± 0.14
30 | CUGUAGCAAUAUUACGCGGA | -2.92 ± 0.23 | -2.91 ± 0.24
31 | CUGUAGCAAUAUUACGGAGU | -3.65 ± 0.23 | -2.74 ± 0.24
32 | CUGUAGCAAUAUUACGGAUA | -2.3 ± 0.28 | -2.22 ± 0.33
33 | CUGUAGCAAUAUUACGGCAU | -3.45 ± 0.31 | -1.86 ± 0.27
34 | CUGUAGCAAUAUUACGGCGG | -2.82 ± 0.27 | -1.93 ± 0.32
35 | CUGUAGCAAUAUUACGGUUG | -0.904 ± 0.081 | -0.833 ± 0.087
36 | CUGUAGCAAUAUUACGUACC |  | -0.725 ± 0.38
37 | CUGUAGCAAUAUUACGUCGU | -2.99 ± 0.31 | -1.8 ± 0.28
38 | CUGUAGCAAUAUUACGUCUC | -4.07 ± 0.39 | 
39 | CUGUAGCAAUAUUACGUGAA |  | -2.71 ± 0.29
40 | CUGUAGCAAUAUUACGUGUC | -2.97 ± 0.27 | -1.29 ± 0.17
41 | CUGUAGCAAUAUUACGUUCU | -3.72 ± 0.34 | -2.94 ± 0.4
42 | CUGUAGCAAUAUUACGUUUG | -1.44 ± 0.085 | -0.284 ± 0.1
43 | CUUAAGCAAUAUUACGACAG | 0.325 ± 0.096 | -0.266 ± 0.12
44 | CUUAAGCAAUAUUACGACGU | -2.75 ± 0.16 | -1.44 ± 0.15
45 | CUUAAGCAAUAUUACGAGGA | -2.64 ± 0.34 | -3.43 ± 0.46
46 | CUUAAGCAAUAUUACGAGGG | -2.95 ± 0.21 | -2.85 ± 0.29
47 | CUUAAGCAAUAUUACGAGUU |  | -2.42 ± 0.36
48 | CUUAAGCAAUAUUACGAUUG | -1.68 ± 0.12 | -1.11 ± 0.13
49 | CUUAAGCAAUAUUACGCAUG | -2.35 ± 0.12 | -1.5 ± 0.13
50 | CUUAAGCAAUAUUACGCCUG | -2.06 ± 0.1 | -0.858 ± 0.089
51 | CUUAAGCAAUAUUACGCGGA | -1.74 ± 0.25 | -2.58 ± 0.44
52 | CUUAAGCAAUAUUACGGAUA | -1.88 ± 0.36 | 

Row | Sequence | self-splicing fitness (ln) (30 °C) | self-splicing fitness (ln) (37 °C)
53 | CUUAAGCAAUAUUACGGCUA | -2.73 ± 0.45 | 
54 | CUUAAGCAAUAUUACGGCUG | -1.38 ± 0.13 | -1.07 ± 0.17
55 | CUUAAGCAAUAUUACGGGUG | -0.609 ± 0.049 | 0.489 ± 0.07
56 | CUUAAGCAAUAUUACGUAUU | -4.4 ± 0.31 | -2.25 ± 0.23
57 | CUUAAGCAAUAUUACGUGAA | -2.87 ± 0.12 | -2.55 ± 0.29
58 | CUUAAGCAAUAUUACGUGGA | -3.7 ± 0.18 | -3.42 ± 0.16
59 | CUUAAGCAAUAUUACGUGGU | -4 ± 0.21 | -2.35 ± 0.2
60 | CUUAAGCAAUAUUACGUGUA | -3.17 ± 0.14 | -2.64 ± 0.17
61 | CUUAAGCAAUAUUACGUUAC | -2.2 ± 0.19 | -2.67 ± 0.34
62 | CUUAAGCAAUAUUACGUUUA | -2.81 ± 0.18 | -2.6 ± 0.24
63 | CUUCAGCAAUAUUACGAAGA | -3.72 ± 0.4 | -2.33 ± 0.21
64 | CUUCAGCAAUAUUACGAUAG | -0.458 ± 0.07 | -0.818 ± 0.1
65 | CUUCAGCAAUAUUACGAUCA |  | -1.38 ± 0.32
66 | CUUCAGCAAUAUUACGAUCG | -0.136 ± 0.044 | 0.234 ± 0.069
67 | CUUCAGCAAUAUUACGCAAU | -4.04 ± 0.37 | -2.04 ± 0.3
68 | CUUCAGCAAUAUUACGCCCA | -1.53 ± 0.31 | -0.354 ± 0.26
69 | CUUCAGCAAUAUUACGCCCG | -0.156 ± 0.12 | -0.17 ± 0.15
70 | CUUCAGCAAUAUUACGCCGA |  | -2.47 ± 0.31
71 | CUUCAGCAAUAUUACGCCUA |  | -2.38 ± 0.32
72 | CUUCAGCAAUAUUACGCGAG | -3.15 ± 0.2 | -1.91 ± 0.2
73 | CUUCAGCAAUAUUACGCGGU | -2.21 ± 0.096 | -0.649 ± 0.095
74 | CUUCAGCAAUAUUACGGCAA | -2.87 ± 0.48 | -1.92 ± 0.41
75 | CUUCAGCAAUAUUACGGCGC | -3.07 ± 0.13 | -3.29 ± 0.19
76 | CUUCAGCAAUAUUACGGCUU | -3.25 ± 0.16 | -3.2 ± 0.26
77 | CUUCAGCAAUAUUACGGGCU | -3.81 ± 0.27 | -2.83 ± 0.31
78 | CUUCAGCAAUAUUACGUAAU | -2.76 ± 0.13 | -0.639 ± 0.1

Row | Sequence | self-splicing fitness (ln) (30 °C) | self-splicing fitness (ln) (37 °C)
79 | CUUCAGCAAUAUUACGUACC | -2.36 ± 0.3 | -2.12 ± 0.24
80 | CUUCAGCAAUAUUACGUCUU | -3.19 ± 0.16 | -3.67 ± 0.42
81 | CUUCAGCAAUAUUACGUUAU | -3.2 ± 0.26 | -2.14 ± 0.28
82 | CUUCAGCAAUAUUACGUUGA | -3.08 ± 0.25 | -2.85 ± 0.24
83 | CUUCAGCAAUAUUACGUUUG | -1.87 ± 0.082 | -1.24 ± 0.091
84 | CUUGAGCAAUAUUACGACAA |  | -2.84 ± 0.49
85 | CUUGAGCAAUAUUACGACGG | -1.97 ± 0.2 | -1.52 ± 0.26
86 | CUUGAGCAAUAUUACGCAAU | -3.44 ± 0.32 | -2.77 ± 0.38
87 | CUUGAGCAAUAUUACGCAGC | -2.02 ± 0.3 | -0.712 ± 0.28
88 | CUUGAGCAAUAUUACGCAUA | -3.01 ± 0.36 | 
89 | CUUGAGCAAUAUUACGCCAA | -3.52 ± 0.25 | -2.09 ± 0.32
90 | CUUGAGCAAUAUUACGGGGC | -3.82 ± 0.2 | -0.729 ± 0.17
91 | CUUGAGCAAUAUUACGGGGU | -3.14 ± 0.17 | -3.37 ± 0.27
92 | CUUGAGCAAUAUUACGUACU | -4.15 ± 0.42 | -3.49 ± 0.39
93 | CUUGAGCAAUAUUACGUAGG | -1.79 ± 0.15 | -0.65 ± 0.15
94 | CUUGAGCAAUAUUACGUCAA | -3.45 ± 0.21 | -2.19 ± 0.23
95 | CUUGAGCAAUAUUACGUCGA | -1.25 ± 0.24 | 
96 | CUUGAGCAAUAUUACGUGAU | -4.13 ± 0.21 | -1.96 ± 0.15
97 | CUUGAGCAAUAUUACGUGGG | -3.3 ± 0.38 | -3.17 ± 0.27
98 | CUUUAGCAAUAUUACGAACG | 0.602 ± 0.16 | 0.157 ± 0.19
99 | CUUUAGCAAUAUUACGAAUA | -3.48 ± 0.48 | 
100 | CUUUAGCAAUAUUACGAAUG | 0.423 ± 0.14 | -0.306 ± 0.17
101 | CUUUAGCAAUAUUACGAGUA | -2.85 ± 0.22 | -3.63 ± 0.42
